Results published in doi:10.1101/2022.05.18.492403.

Target: recombinant C-terminal StrepII-tagged SbtB from Synechocystis sp. PCC 6803 (ScSbtB), wildtype (Synechocystis sp. PCC 6803), P73954
Assay: crystal structure
Conditions: remark: other sources report otherwise

B1: recombinant C-terminal StrepII-tagged SbtB from Synechocystis sp. PCC 6803 (ScSbtB), wildtype, P73954 1-110 (natural protein)
chain: MAKPANKLVIVTEKILLKKIAKIIDESGAKGYTVMNTGGKGSRNVRSSGQPNTSDIEANIKFEILTETREMAEEIADRVAVKYFNDYAGIIYICSAEVLYGHTFCGPEGC
stoichiometry N: 3
